Data on three molecules can be found in article PMC4617720, “Antigenic Characterization of the HCMV gH/gL/gO and Pentamer Cell Entry Complexes Reveals Binding Sites for Potently Neutralizing Human Antibodies” (PLoS Pathogens, 2015).

B1: HCMV UL130 (natural protein)
chain: SPWSTLTANQNPSPPWSKLTYSKPHDAATFYCPFLYPSPPRSPLQFSGFQRVSTGPECRNETLYLLYNREGQTLVERSSTWVKKVIWYLSGRNQTILQRMPRTASKPSDGNVQISVEDAKIFGAHMVPKQTKLLRFVVNDGTRYQMCVMKLESWAHVFRDYSVSFQVRLTFTEANNQTYTFCTHPNLIV
notes: source: 293EBNA cells, transfected with individual plasmids encoding each subunit; not shown: Strep-tag II, C-terminal, kept
B2: HCMV glycoprotein L (gL) (natural protein)
chain: AAVSVAPTAAEKVPAECPELTRRCLLGEVFEGDKYESWLRPLVNVTGRDGPLSQLIRYRPVTPEAANSVLLDEAFLDTLALLYNNPDQLRALLTLLSSDTAPRWMTVMRGYSECGDGSPAVYTCVDDLCRGYDLTRLSYGRSIFTEHVLGFELVPPSLFNVVVAIRNEATRTNRAVRLPVSTAAAPEGITLFYGLYNAVKEFCLRHQLDPPLLRHLDKYYAGLPPELKQTRVNLPAHSRYGPQAVDAR
notes: source: 293EBNA cells, transfected with individual plasmids encoding each subunit
B3: HCMV UL131A-K27R (natural protein)
chain: QCQRETAERNDYYRVPHYWDACSRALPDQTRYKYVEQLVDLTLNYHYDASHGLDNFDVLKRINVTEVSLLISDFRRQNRRGGTNKRTTFNAAGSLAPHARSLEFSVRLFAN
notes: also called UL131A-K27R mutation; source: 293EBNA cells, transfected with individual plasmids encoding each subunit

Common to all, as to details: both partners purified
The target of assay [1] is T1, HCMV glycoprotein H (gH), soluble, terminated at amino acid 715 (human cytomegalovirus (HCMV), Merlin …, UniProt Q6SW67 24-715).
T1 construct: source: 293EBNA cells, transfected with individual plasmids encoding each subunit
T1 sequence: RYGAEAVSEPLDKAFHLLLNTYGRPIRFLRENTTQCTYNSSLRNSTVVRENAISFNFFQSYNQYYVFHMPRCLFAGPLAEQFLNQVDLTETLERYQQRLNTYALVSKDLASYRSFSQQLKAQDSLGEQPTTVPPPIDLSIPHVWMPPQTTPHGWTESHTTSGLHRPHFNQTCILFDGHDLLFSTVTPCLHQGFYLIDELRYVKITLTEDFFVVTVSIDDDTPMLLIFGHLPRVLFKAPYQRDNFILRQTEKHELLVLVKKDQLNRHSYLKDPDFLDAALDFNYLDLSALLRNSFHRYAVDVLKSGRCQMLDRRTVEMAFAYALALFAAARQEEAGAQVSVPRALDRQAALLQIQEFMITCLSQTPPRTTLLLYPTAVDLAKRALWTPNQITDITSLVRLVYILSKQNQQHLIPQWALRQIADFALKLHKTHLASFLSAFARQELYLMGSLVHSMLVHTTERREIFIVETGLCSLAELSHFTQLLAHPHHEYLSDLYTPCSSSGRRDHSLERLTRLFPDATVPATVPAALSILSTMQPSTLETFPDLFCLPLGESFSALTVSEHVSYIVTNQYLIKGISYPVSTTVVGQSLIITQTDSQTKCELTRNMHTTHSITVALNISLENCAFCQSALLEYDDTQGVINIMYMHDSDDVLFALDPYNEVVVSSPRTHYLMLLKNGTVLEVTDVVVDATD
Briefly: cross-linking; purified unbound Pentamer (with UL131A-K27R), 36 pmol, 600-fold excess of DSSG-d0/d6 (links lysines up to 25 Å apart), 10 mM HEPES pH 7.5, 300 mM NaCl, RT, 30 min; cross-linked peptides identified by LC-MS/MS (xQuest).

Assay [2] addresses T1, HCMV glycoprotein H (gH), soluble, …. Kind of assay: non-reducing SDS-PAGE with western blot; purified Pentamer, non-boiled and non-reduced (-/-), blotted with rabbit polyclonal anti-Pentamer antibody. A general note: Immunoblotting shows a protein as a band on a membrane.
The assay “HCMV UL130” has as its target B1. Briefly: cross-linking; purified unbound Pentamer (with UL131A-K27R), 36 pmol, 600-fold excess of DSSG-d0/d6 (links lysines up to 25 Å apart), 10 mM HEPES pH 7.5, 300 mM NaCl, RT, 30 min; cross-linked peptides identified by LC-MS/MS (xQuest).

Regarding B1, the binding result in assay [1] was “binds”. As to B2, the binding result in assay [2] is “binds”. For the molecule B3, the binding result with HCMV UL130 was “binds”.
